Test results taken from patent US20140106371A1.

How the values were obtained:
[1] = biological target: asialotransferrin (human) (UniProt P02787); experiment: qualitative ELLA, lectin 2 µg/mL
[2] = biological target: Gal-α1,3-Gal-BSA glycoconjugate (UniProt P02769); experiment: ELLA lectin dose response
Sequence of Gal-α1,3-Gal-BSA glycoconjugate (P02769 25-607 limits assumed): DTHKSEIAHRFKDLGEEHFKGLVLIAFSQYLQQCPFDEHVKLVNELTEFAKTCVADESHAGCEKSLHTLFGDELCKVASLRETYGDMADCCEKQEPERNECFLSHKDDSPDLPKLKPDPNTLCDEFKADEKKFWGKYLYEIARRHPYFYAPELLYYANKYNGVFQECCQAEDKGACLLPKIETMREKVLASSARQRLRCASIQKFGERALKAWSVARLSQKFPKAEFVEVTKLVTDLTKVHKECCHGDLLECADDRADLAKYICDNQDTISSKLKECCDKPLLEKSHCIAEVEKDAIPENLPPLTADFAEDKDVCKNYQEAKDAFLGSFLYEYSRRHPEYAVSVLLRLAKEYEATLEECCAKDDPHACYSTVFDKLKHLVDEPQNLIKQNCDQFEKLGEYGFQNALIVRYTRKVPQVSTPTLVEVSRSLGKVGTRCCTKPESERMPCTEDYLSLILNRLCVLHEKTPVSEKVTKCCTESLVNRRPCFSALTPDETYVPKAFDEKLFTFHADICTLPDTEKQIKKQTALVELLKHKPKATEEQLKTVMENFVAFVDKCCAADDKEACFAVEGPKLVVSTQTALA

Sequence of asialotransferrin (human) (P02787 20-698 limits assumed): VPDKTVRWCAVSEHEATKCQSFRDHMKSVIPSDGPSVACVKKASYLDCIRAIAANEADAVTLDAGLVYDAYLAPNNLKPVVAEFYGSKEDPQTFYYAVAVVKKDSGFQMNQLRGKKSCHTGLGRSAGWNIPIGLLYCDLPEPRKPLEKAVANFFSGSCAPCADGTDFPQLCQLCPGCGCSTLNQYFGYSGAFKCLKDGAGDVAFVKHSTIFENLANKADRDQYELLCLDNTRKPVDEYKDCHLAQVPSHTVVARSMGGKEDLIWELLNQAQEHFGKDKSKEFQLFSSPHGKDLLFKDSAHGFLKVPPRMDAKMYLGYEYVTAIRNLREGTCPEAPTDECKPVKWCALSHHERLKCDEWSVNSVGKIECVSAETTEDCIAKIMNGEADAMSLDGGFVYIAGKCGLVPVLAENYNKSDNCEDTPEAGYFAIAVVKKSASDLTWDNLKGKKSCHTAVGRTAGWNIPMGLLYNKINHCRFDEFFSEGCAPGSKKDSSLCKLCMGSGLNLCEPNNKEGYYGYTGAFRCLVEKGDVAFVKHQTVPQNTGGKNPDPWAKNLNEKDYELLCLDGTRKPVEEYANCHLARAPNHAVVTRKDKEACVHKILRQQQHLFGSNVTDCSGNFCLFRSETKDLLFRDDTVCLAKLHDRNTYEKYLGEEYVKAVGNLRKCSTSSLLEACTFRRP

| Substance | ELLA signal relative to rPA-ILNmE6 [1] | lectin concentration at which the ELLA signal reached saturation [2] |
| --- | --- | --- |
| H50N (rPA-ILNm protein) (from UniProt Q05097 1-122) | 0.5 fold |  |
| H50N:Q53G (from UniProt Q05097 1-122) | < 0.5 fold |  |
| rPA-ILN (recombinant wild type PA-IL with an N-terminal RGS-6HIS affinity tag) (from UniProt Q05097 1-122) |  | > 1.25 µg/mL |
